{"source": "paper doi:10.1101/501098", "about": "(bioRxiv, 2018)", "biological_target": "Histone H4 (Xenopus laevis), in the nucleosome (Xenopus laevis, UniProt P62799 2-103)", "assay": "cryo-EM structure", "data": [{"binder": "Dot1L(2-416) (domain or fragment) GEKLELRLKSPVGAEPAVYPWPLPVYDKHHDAAHEIIETIRWVCEEIPDLKLAMENYVLIDYDTKSFESMQRLCDKYNRAIDSIHQLWKGTTQPMKLNTRPSTGLLRHILQQVYNHSVTDPEKLNNYEPFSPEVYGETSFDLVAQMIDEIKMTDDDLFVDLGSGVGQVVLQVAAATNCKHHYGVEKADIPAKYAETMDREFRKWMKWYGKKHAEYTLERGDFLSEEWRERIANTSVIFVNNFAFGPEVDHQLKERFANMKEGGRIVSSKPFAPLNFRINSRNLSDIGTIMRVVELSPLKGSVSWTGKPVSYYLHTIDRTILENYFSSLKNPKLREEQEAARRRQQRESKSNAATPTKGPEGKVAGPADAPMDSGAEEEKAGAATVKKPSPSKARKKKLNKKGRKMAGRKRGRPKK", "values": [{"measurement": "binding result", "value": "binds"}]}]}
